For 20 sequences, protein production results are on record in a protein production outcome set (Wang et al. 2014).

A short description of this data set: label from the status in PepcDB records.
As to “MLPADGIVCFPGQTWEKVLSKVKKAVVFMDDRCSESLHWNGGAALLFEAGARNIKQFSSFEAGAQNEPKAVFVVSTVLKGRTADIIKDIISLSHFQYCVVFTTVPHSIHLLANNVNADLEGNPVFEQFEEKLCEWMGDMNYTAEVMHAPVVFAPLTEHLHLLPAFSNLFPLLDVDLESINEKRPEKKRFGSLMDMDVHSLPPGLQIQIKTLALTLNGLFEFISTREESFSVGPMSRLIATELANLPQAKNRRKTAPNKASVVFVDRTLDLTGAVGHHGDNLAEKILSVLPQLPGHVTDVQVDMLELTHLKPTTDTKGILAPGCLAQNQSATAKLLWETMLVAKQKEAVIEVRRQLVEAASKENLPIKMSLGRVTAEQLCSYVQLFRDSWGALESHSGVLQLGLAAAQALRHPALQRWDACLAFERLLLQALGDSDLAGVLKQLLPLIKSSESGTGSDLSMDDLLVLLVYVYSVAKEACSGGSEEEKQVEKVEQELIGALTLRLTRETTLSPLVQEVTGVSCPEELTMECAHSVLESMFGTLRGVARARDHLKNFSSVFTPGDGAHQDQHRYILILMIQDQHQ”, the protein production result is “failed”.

Consider “MRDYSELEIFEGNPLDKWNDIIFHASKKLSKKELERLLELLALLETFIEKEDLEEKFESFAKALRIDEELQQKIESRKTDIVIQSMANILSGNE”, for which the protein production result is recorded as “not failed”. As to “MNAYYLLAIAVCAEVIATTSMKAVKGLSTPLPLILLITGYAIAFWMLILVMRTIPVGITYAIWSGMGIVMVSVAAYFIYGQKLDLPALLGMGMIVAGVAVIQLFSKTAGH”, the protein production result is listed as “failed”.

For the sequence “MALHNDGFINRQFVFGDFVLQFDGVLCHQEQQISVPPKELAVLTALLEAAGELVSKDALLDKVWPDGDVNEESLTRCIYALRRILLEDKSNRYIDTVYGKGYRFSRPVAVVSRPTASAQKCTMAILPFRTDGQLDSLELHAALVQCLSRYSPFGLVVMPATITRNCGDIADIIAMIDQLRPDYYLAGQVQQQGDSWLLRVELVRADGHQLVHHESIEIGPGEHIAALQTRLASLLPQRIPGLRWHHGNGSQLDSLDMAITYLNGRHELQQHTPSSLKRALALFLQCTSSQPGNALPYCSLAECYLALAQLGLFDQERALDGAQQAVDRAVALDAANPQALGLLALLSSLRGQQTIAEALFEQARMLAPDSIDIHYYHAWHLFLSDRIPLAQRSLDACLERDPSRIAASMLQLWLTYCEHRLDEAVALGKRQLCQYGQDHPVLQSMLGLMLAIQGQHAQAEELAAAVKASGEEAGLLAVNGCYIAHCRMGDAARPLLQDFLSRVDCRQVRSGLLPLILALHGRAGALHLLGQLESDRYLWLRASRQDPRLAGLFHPHLSEAA”, the protein production result is on record as “failed”. The result for “MENFDEVIKEYQKYLEGKEKTHKINSCKHPCCEEDNLKSVKNYFKVYHKKYIPSIIQKKKKERNEHAPPLLKDIQDKRCTNVFERLNDKQFYTGVQKTKFMELLKNNKNKSSYCYNNIKVFSTMLKKPCNYVVTPGTLGIQKYGIQTGRPKTIFLFNNEKKYDKGVYFLVKSYIKNIKSLCYEITKILQPSIGPTRKIYDQNFSLVRNVNDLINGGKYLCTSGDPPAPIRNLSLHFLT” reads “failed”; that for “MKIITCYKSVPDEQDIVVNNADGSLDFSRANNKISQYDLNAIEAANQLKTQLDGIQITAMSVGGNALTNAKARKDVLSRGADDLVVVVDEQLEASLPYQTATVLAAAATKQGYDLILCGDGSADLSSQQVSLLVGEILNIPAINGVNKIVSITTDSITVERELENEIETLTITLPAVIAVSTDINSPQIPSMKAILGAAKKPVQQWSVADLGLEPITPRSEQTVLAPKQKVRQRIIIEGDGDDQIAEFAEYLRKIIK”, “failed”; that for “MRLMDILEILYYKKGKEFGILEKKMKEIFNETGVSLEPVNSELIGRIFLKISVLEEGEEVPSFAIKALTPKENAVDLPLGDWTDLKNVFVEEIDYLDSYGDMKILSEKNWYKIYVPYSSVKKKNRNELVEEFMKYFFESKGWNPGEYTFSVQEIDNLF”, “not failed”. Then “KNYDLSDLPGPPSKPQVTDVTKNSVTLSWQPGTPGTLPASAYIIEAFSQSVSNSWQTVANHVKTTLYTVRGLRPNTIYLFMVRAINPQGLSDPSPMSDPVRTQD”, with “not failed”; and “MRLLVSCVDSGSIKEVLCNIGTDTSVQSALQPFHVAPHLAEGLKAYVDRMWVISEDEAILARNSGVVELVKISKHLKENEALQVDPKGESKNEKSLSDDLPKFDISEFEITSSVSDLFDDAKLESLSSKSVKRTKLVDGFVTLCPIKKDSSNNTFVAATKSGLLHIIKKGEDKKLIKLASLGLKAPVEFLQLYDLEDTDTDKYIFAYGGEENLIKLVEIDSSFQSLKQIWEAKNVKNDRLDMRVPVWPMALRFLEPSPGKTEKGKLNYQFAAITRWSHLTKYSTQHGRKPFAQIDLLPNREPLSQMEVFDAKGENVVSSLGNFQSETFNELNVITTDYKKNVFKFDGNGRMLGKVGRDDITGSSTYIHVHDGKYLLQGGLDRYVRIFDIKTNKMLVKVYVGSRINFIVMLDDVEIEMPLSPSAKAAKGKQKRKVTELEEDADELWNKLEGKVAASKASKKSKI”, with “not failed”; and “MSEVILDIMNNELVSSLILRELIQYRRRFTHSTKSVSEEESQVTQVQLPRIRTFVDEGRRVELILPAFPVKSPSPYKVLGRMPDMAERLSLIFLNSLCQRIQLYYPPGAHIRICSDGHVFGDLIGTSDETINTYQDEIENLLHELGAVHLSVFNLKDVENMAALTADYGHLRQRLVEDYAESAEEIKEQLMQSEEGLQLYRSITRFLYEDSLRPDYTGSNAALQKDAKKRACGVIQRSWAWGNLLAENFPDAIRLSIHPQPADSLKLGIHMMPTKDDWLTPWHGVAANVNGQFVLMKNTDAQQLAGEVVEIRGTPSHYLVKQSDVA”, with “failed”. As to “MKFQLKRLAKKRPDRVQIKIQDGQFEIIGMGVWHSYWRDPYHLLLTIPWTGFLLLICLSYLAINLIFALAYWLGGDCIANAKPGNFLDLFFFSVQTLASIGYGAMYPKTLYANTVVTIEAMIGLVGIAVMTGLAFARFSRPSARVIFSRVAVITPYNDVPTLMFRTANQRRNLILEAQMRVYLMRDEITAEGGFIRRFHDLKLLRNQTPSFTLSWLALHPIDEFSPLYGMSAESLIQTNTNIIISVSGIDETVAQVVHARYTYTASNILWNSRFVDIFHHTSDGHRYIDYKYFHDVLPLDKIG”, the protein production result was “failed”.

On to “MSKGRDILTKTIILALREVAPGLEAVLEAHLRATLNSGIELAYDDPQKFKEAVSKLFGEYSARLLEMVIISKLKGRLGEDIEANSLEELVSEIRKIYGE”, for which the protein production entry is reported as “not failed”. With “MANQLDASVKDDLKTQFVTREGTYRLLTLSEYSRPNRVGYSSNQSSPQVRVSMVTLPSPAQGKLGSDVGVGTPVGGGTAGANTTTTNGSSPGASPTGAAGASTAISNGGAGGDYSHSNHNSNSAGNNTVEARLGGGISMHSMMNGGVVDQNGVATNQVLGGDRICFNFGRDLYVYSFRGAKKGTEMSKPIDKKFYKGTNPSCHDFNISSATPTGAPLLVGFTTGQIQLVSPHVGPREVRKLFNEERLIDKTKVTCLKWLPNSPHLFLAAHASGHLYLYNEELPCAATAPSYQPFKLGDGYTILTSKSKTTRNPLFKWVFSTDNCCVNEFCFSPCGSHLAVVSQDGFLRVFHYDTMELLGIARSYFGGFLCVCWSPDGKYIVVGGEDDLVTVWSLHERRVVARGQGHRSWVSVVAFDPYTTSYTNWDGGDFSDDENQMNEYSHSREARFSGDSTANGGFEGFDRNSTPVHADRNGPHSASFRSDASSAEKLMSYRLGSVSQDTQICLWDITEDVLRHPLVLRQPANSERAYLNGGVDEEAEAEDGIKVIRPVAMSGQATGQQAESGSCSPTREAAGGGTGNGAGEHSNSSSSKFSTANCTISSQSSPDDCDTEAATPASTSSNAGAGSVAGAGAVASTKQNNRNHGTGNSIKFPNCISATKSDSIDGGGGSGSGQRPSQTTSGYNSKTSNSSNKSSNSGSGFSAFNSLTQRLSNFSFLSSSEKKGAGYEGSHSTAHRQHRKAMSMLKSYNQHNHTGGHNNHSQSNNSSSSNFGHSSTLDSNAAGAIGSSSTAHSFGSLKLSRSSHHSSLATAAHASGSAAGSGSGVSSFDPMQLIGTPACPRFDECPLLEPLVCKKIAHERLTALIFREDCFLTACQDGFIYTWARPGHATHATQHLSPGQAAAPGGTVI”, the protein production entry was “failed”. For the sequence “MSAEQDKEPIALKRVRGGDSGLDGLGGPNIQLGSPDKKKRKANTQGSSFPPLSEYAPPPNPNSDHLVAANPFDDSYNTISYKPLPSSNPYLGPGYPGFGGYSTFRMPPHVPPRMSSPYCGPYSLRNQPHPFPQNPLGMGFNRPHAFNFGPHDNSNFGNPPYNNVLTQDINMPGQHFRQGSAENFSQIPPQNVGQVSNPDLASNFAPGNNSNFTSPLETNHSFIPPPNAFGQAKAPLPKQDFTQGATKTPNQNSSTHPPHLNMEDPVNQSNVELKNVNRNNVVQENSRSGSAEATNNHANGTQNKPRQPRGAADLCTPDKSRKFSLLPSRHGHSSSDPVYPCGICTNEVNDDQDAILCEASCQKWFHRICTGMTETAYGLLTAEASAVWGCDTCMADKDVQLMRTREAFGPPAVGGDA”, the protein production entry is given as “not failed”.

As to “VQTPALIIVTGHPATGKTTLSQALATGLRLPLLSKDAFKEVMFDGLGWSDREWSRRVGATAIMMLYHTAATILQSGQSLIMESNFRVDLDTERMQNLHTIAPFTPIQIRCVASGDVLVERILSRIAQGARHPGHCDDRSPADLELVRSRGDIPPLPLGGPLLTVDTTFPEQIDMNAIVQWVRQHLQSGTAFL”, the protein production entry is “not failed”. With “GAEKEDLVQEGILGLLKAIKFYDETKSSFSSFAFLCIRREMISAIRKANTQKHMVLNEALKTNAILEDSAYFDDEGHNINNYKSSESNPEEAYLLKEEIEEFKKFSENNFSKFEKEVLTYLIRGYSYREIATILSKNLKSIDNTIQRIRKKSEEWIKEEENIKR”, the protein production entry is on record as “not failed”. Regarding “MPTFHEIDVLRHNSASWDAQAARDCEWSRPVSAEEVAAARRGDWAVKLTPGALPAHWLGDVRGREILCLASAGGQQAPILAAAGARVTLFDASAGQLDKDRQVAARDRLELACVQGDMRDLSTFADASFDLVFNPISNLYVDDVLPVWRECARVLRPGGKLLASFYNPALFIEDRSPELAEQGLIRPRHRLPYSDLESLSAEALAAKREKGEALVFGHSLTQQIAGQLAAGLLLQDFYEDWQPHPRFVIDRFVPTFLATCALKPRSAAG”, the protein production entry was “failed”.

Take “MEFFAVSLDSHVFSHIKEIFLYNHNQKFYVVMMKHDDVLMILAAAALMFSFSWVHGMLLVLPLLAIPQLSSRTLKWGVLVLAVFVALLILQPMTRAVGLNISDELFRLVLLLLFTFMVALLIERIEKVRSLRELNLELKKQAEKLEDANKELEAFAYSVSHDLRVPLRAIDGFSRILVEDYEDKLDDEGVRILGIIRDNTRKMGQLIDDILLLSRAGRQEMNLAMLDMRELAESTYRELASQEEGRSIEFSVADLPPAMADRALMGQVMGNLLSNAIKFTRDRDPAVIEVGYMDGGDEHTYYVKDNGAGFDMKYASKLFGLFQRLHSQEEFEGTGVGLSIVQRIIKRHGGRVWGEGKVDGGATIYFTLPKVVK”: the protein production result was “failed”. Then “MVTNQKHLEDFGYLKMTQKEGTILPEEYVSIIQHPKGGPKSVTLRENKVSGLKENFIHYLTDTEPGSSGSPVFNDQWTLVALHHSGVPNPEIKDLEHHHHHH”, with “not failed”. Then “MTGGAAAAPPGRGAAFSWCLFDFANSGYPTVVATFVFSAYVTKAVAATPEAGTAAWGYAMGASGLLIALLAPIFGAVADHSGRRKPWLGLFSLLCVASTALMWTIRPDPAFLLAALVLAALSNAAFEIGGVFYNAMLPDVTTPERMGRLSGWAWGLGYAGGLACLVIALLALVQADPPPFGLDKAAAEPVRATLVLVALWFVVFGWPLFAFVPERPTGRVLALGAAARGAIDSLKGLPALFRGDPRLGWFLLARMLYTEGLNTLFAFGGIYAAGTFDMGFDQIIVFGIGLNITAGLGAFAFGWIDDWLGSPRTIVVGLIGLIGFCVAVLLVEDTAWFVGLALTMGIFFGPVQAASRTHIARVAPPDRRGELFGLFALTGKISAFAGPLAVGLATDLSGSQRLGMATVVVFLVAGLGLLVKTRAPRG”, with “failed”.
